Publication PMC9008408

B1: TIM-4: TM (protein)
parent chain: MSKEPLILWLMIEFWWLYLTPVTSETVVTEVLGHRVTLPCLYSSWSHNSNSMCWGKDQCPYSGCKEALIRTDGMRVTSRKSAKYRLQGTIPRGDVSLTILNPSESDSGVYCCRIEVPGWFNDVKINVRLNLQRASTTTHRTATTTTRRTTTTSPTTTRQMTTTPAALPTTVVTTPDLTTGTPLQMTTIAVFTTANTCLSLTPSTLPEEATGLLTPEPSKEGPILTAESETVLPSDSWSSVESTSADTVLLTSKESKVWDLPSTSHVSMWKTSDSVSSPQPGASDTAVPEQNKTTKTGQMDGIPMSMKNEMPISQLLMIIAPSLGFVLFALFVAFLLRGKLMETYCSQKHTRLDYIGDSKNVLNDVQHGREDEDGLFTL
B2: TIM-4: N291Q (protein)
parent chain: B1 parent chain

Key:
[1] = CHX chase, western blot of remaining protein, HEK293; details: glycan lost; control: wild type TIM-4, no TM
[2] = anti-Flag IP, ubiquitin blot, MG132, A549-LV-TIM-4-Flag; details: glycan lost; control: no TM
[3] = anti-HA IP, ubiquitin blot, MG132, A549; details: glycan lost; control: wild type TIM-4
[4] = confocal immunofluorescence, mCherry-Sec61b ER marker, A549; details: glycan lost; control: wild type TIM-4

Protein | degradation_or_half_life [1] | other: ubiquitination [2] | other: ubiquitination [3] | localisation_or_trafficking [4]
B1 | decreases | increases |  | 
B2 |  |  | increases | changes, co-localized with the ER-tracker compared with wild type TIM-4
